According to patent US20190315845A1 (ANNEXON, published 2019):
Where two headings read alike, the source gives them in different places. Each block holds one binder with its values, some of them ahead of it.

Legend:
human C1q [1] = molecular target: T1, human C1q (human, UniProt P02745 23-245; P02746 28-253; P02747 29-245); assay: competition ELISA, plate-coated human C1q; competitor biotinylated mouse M1 (0.02 µg/ml); IC50 normalised to chimeric M1
T1 construct: Purified human C1q protein (plate-coated in ELISA, ligand or analyte in SPR, in human serum in CH50); also called hC1q; complement factor C1q
Protocol: (§1) The binding of humanized M1 variants to human C1q was analyzed by competition ELISA. A three-fold dilution series of test antibody (5 μg/ml to 0.002 μg/ml) was premixed with a constant concentration of biotinylated mouse M1 antibody (0.02 μg/ml, final concentration) before incubating for 1 hour at 37° C. with shaking on plates pre-coated with human C1q at 1.0 μg/ml. The binding of mouse M1 antibody was detected with streptavidin-peroxidase conjugate (Sigma-Aldrich cat. no. 55512) and TMB (3,3′,5,5′-tetramethylbenzidine) substrate (Thermo Scientific cat. no. 34029). The reaction was stopped with 1M HCl, absorbance read at 450 nm on a Dynex Technologies MRX TC II plate reader and the binding curves plotted.
The binding curves were used to calculate IC₅₀ values (concentration of test antibody that inhibits labelled competitor binding by 50%) for each antibody normalized to the IC₅₀ of chimeric M1 and antibody yields from NS0 transfectants were also compared (Table 1).

human C1q [2] = molecular target: T1, human C1q; assay: competition ELISA on plate-bound human C1q against biotinylated mouse M1 antibody (0.02 µg/ml); bound biotin-M1 read as OD450
Description: (§2) FIG. 4A, FIG. 4B, FIG. 4C, and FIG. 4D depicts competition ELISA assays for human C1q. A dilution series of purified humanized anti-C1q antibodies were competed against a fixed concentration of biotinylated monoclonal antibody M1 for binding to human C1q. Bound biotinylated M1 antibody was detected using streptavidin-peroxidase conjugate and TMB substrate. FIG. 4A depicts the results with the humanized antibodies VH1/Vκ1, VH1/Vκ2, and VH1/Vκ3. FIG. 4B depicts the results with the humanized antibodies VH1/Vκ4, VH2/Vκ1, VH2/Vκ2, VH2/Vκ3, and VH2/Vκ4. FIG. 4C depicts the results with the humanized antibodies VH3/Vκ1, VH3/Vκ2, VH3/Vκ3, and VH3/Vκ4. FIG. 4D depicts the results with the humanized antibodies VH4/Vκ1, VH4/Vκ2, […], and VH4/Vκ4.
as §1

mouse C1q [3] = molecular target: T2, mouse C1q (mouse, UniProt P98086 23-245; P14106 26-253; Q02105 30-246); assay: competition ELISA on plate-bound mouse C1q against biotinylated chimeric M1 antibody (0.03 µg/ml); bound biotin-chimeric M1 read as OD450
T2 construct: Purified mouse C1q protein; also called mC1q
Protocol: (§3) The binding of humanized M1 variants to mouse C1q was analyzed by competition ELISA on four selected antibodies, VH1/Vκ1, VH3/Vκ1, VH3/Vκ4 and VH4/Vκ3. An irrelevant IgG4 (S241P L248E) antibody was also included as a binding control. A three-fold dilution series of test antibody (100 μg/ml to 0.046 μg/ml) was premixed with a constant concentration of biotinylated chimeric M1 antibody (0.03 μg/ml, final concentration) before incubating for 1 hour at 37° C. with shaking on plates pre-coated with mouse C1q at 5.0 μg/ml. The binding of chimeric M1 antibody was detected with streptavidin-peroxidase conjugate (Sigma-Aldrich cat. no. S5512) and TMB substrate (Thermo Scientific cat. no. 34029). The reaction was stopped with 1M HCl, absorbance read at 450 nm on a Dynex Technologies MRX TC II plate reader and the binding curves plotted.
(§4) The binding curves were used to calculate IC₅₀ values for each antibody normalized to the IC₅₀ of chimeric M1 (Table 2).

mouse C1q [4] = molecular target: T2, mouse C1q; assay: competition ELISA, plate-coated mouse C1q; competitor biotinylated chimeric M1 (0.03 µg/ml); IC50 normalised to chimeric M1
Protocol: as §3, §4

human C1q [5] = molecular target: T1, human C1q; assay: competition ELISA on plate-bound human C1q against biotinylated mouse M1 antibody (0.02 µg/ml); bound biotin-M1 read as OD450; remark: listed apart in the source
Description: as §2, §1

rat C1q = rat C1q (rat, UniProt P31720 23-245; P31721 26-253; P31722 29-245); assay: cell-based or functional assay
human C1q [6] = molecular target: T1, human C1q; assay: cell-based or functional assay
human C1q [7] = molecular target: T1, human C1q; assay: competition ELISA on plate-bound human C1q against biotinylated mouse M1 antibody (0.02 µg/ml); bound biotin-M1 read as OD450; remark: listed apart in the source
Description: as §2, §1

human C1q [8] = molecular target: T1, human C1q; assay: as above; remark: listed apart in the source
Description: as §2, §1

T2 sequence (P98086 23-245 limits assumed, chain 1 of 3): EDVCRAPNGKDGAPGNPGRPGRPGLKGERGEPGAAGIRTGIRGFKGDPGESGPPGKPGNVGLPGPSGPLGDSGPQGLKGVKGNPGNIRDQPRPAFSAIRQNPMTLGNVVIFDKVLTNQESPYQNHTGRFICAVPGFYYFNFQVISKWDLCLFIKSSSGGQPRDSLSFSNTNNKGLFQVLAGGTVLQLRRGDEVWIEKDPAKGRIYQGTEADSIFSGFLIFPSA
T2 sequence (P14106 26-253 limits assumed, chain 2 of 3): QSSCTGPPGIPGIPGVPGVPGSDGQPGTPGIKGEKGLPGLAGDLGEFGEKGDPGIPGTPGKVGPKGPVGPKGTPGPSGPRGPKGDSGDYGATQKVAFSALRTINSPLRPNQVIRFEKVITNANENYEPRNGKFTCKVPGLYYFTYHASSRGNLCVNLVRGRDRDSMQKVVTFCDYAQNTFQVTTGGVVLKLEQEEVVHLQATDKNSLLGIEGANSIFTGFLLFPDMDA
T2 sequence (Q02105 30-246 limits assumed, chain 3 of 3): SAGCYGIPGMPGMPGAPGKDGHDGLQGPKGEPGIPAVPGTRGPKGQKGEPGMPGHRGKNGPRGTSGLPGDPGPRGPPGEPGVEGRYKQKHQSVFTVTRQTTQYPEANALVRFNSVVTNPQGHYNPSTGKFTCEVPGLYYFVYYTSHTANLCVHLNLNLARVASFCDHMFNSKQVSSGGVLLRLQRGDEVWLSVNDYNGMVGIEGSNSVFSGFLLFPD
T1 sequence (P02745 23-245 limits assumed, chain 1 of 3): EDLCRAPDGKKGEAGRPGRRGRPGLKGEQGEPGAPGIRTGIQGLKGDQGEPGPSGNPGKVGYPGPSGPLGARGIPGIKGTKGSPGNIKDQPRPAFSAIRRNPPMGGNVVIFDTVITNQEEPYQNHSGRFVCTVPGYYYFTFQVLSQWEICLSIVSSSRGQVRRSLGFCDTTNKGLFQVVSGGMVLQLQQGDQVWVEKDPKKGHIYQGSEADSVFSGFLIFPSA
T1 sequence (P02746 28-253 limits assumed, chain 2 of 3): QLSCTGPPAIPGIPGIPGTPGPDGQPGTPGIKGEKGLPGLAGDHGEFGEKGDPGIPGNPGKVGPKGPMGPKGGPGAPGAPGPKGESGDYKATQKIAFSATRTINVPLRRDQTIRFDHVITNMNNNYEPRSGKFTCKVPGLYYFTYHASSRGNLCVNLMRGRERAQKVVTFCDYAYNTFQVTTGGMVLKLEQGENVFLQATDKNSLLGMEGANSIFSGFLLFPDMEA
T1 sequence (P02747 29-245 limits assumed, chain 3 of 3): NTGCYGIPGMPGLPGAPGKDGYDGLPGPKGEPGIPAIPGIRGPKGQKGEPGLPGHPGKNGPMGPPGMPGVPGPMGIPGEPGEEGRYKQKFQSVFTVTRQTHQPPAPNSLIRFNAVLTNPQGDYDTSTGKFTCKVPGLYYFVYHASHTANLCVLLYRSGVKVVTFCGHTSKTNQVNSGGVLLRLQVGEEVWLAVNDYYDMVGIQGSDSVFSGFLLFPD
Sequence of rat C1q (P31720 23-245 limits assumed, chain 1 of 3): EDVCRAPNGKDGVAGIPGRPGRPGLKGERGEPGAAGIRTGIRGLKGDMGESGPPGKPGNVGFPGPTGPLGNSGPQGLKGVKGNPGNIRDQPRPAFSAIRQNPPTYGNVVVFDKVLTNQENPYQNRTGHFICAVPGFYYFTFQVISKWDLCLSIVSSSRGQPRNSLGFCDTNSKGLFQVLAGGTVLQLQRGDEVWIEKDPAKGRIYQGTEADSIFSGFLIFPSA
Sequence of rat C1q (P31721 26-253 limits assumed, chain 2 of 3): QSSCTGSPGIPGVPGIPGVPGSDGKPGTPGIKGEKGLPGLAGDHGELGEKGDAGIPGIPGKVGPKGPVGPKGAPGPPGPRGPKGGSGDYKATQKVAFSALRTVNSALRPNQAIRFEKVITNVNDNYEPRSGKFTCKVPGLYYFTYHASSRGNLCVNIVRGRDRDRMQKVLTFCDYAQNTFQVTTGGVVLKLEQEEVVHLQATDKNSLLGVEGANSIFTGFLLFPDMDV
Sequence of rat C1q (P31722 29-245 limits assumed, chain 3 of 3): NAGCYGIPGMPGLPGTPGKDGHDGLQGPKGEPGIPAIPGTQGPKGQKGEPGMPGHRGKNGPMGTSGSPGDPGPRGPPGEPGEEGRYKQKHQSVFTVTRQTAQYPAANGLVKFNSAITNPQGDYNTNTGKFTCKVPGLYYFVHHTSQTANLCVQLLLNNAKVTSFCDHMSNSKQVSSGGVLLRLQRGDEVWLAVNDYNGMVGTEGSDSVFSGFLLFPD

B1: humanized anti-C1q antibody VH2/Vκ2 (antibody, human IgG4)
heavy: not shown
light: DVQITQSPSSLSASLGERATINCRASKSINKYLAWYQQKPGKANKLLIYSGSTLQSGIPARFSGSGSGTDFTLTISSLEPEDFAMYYCQQHNEYPLTFGQGTKLEIK
notes: Full-length human IgG4 (S241P L248E) / human kappa, expressed in NS0, Protein A purified; not shown: human kappa light chain constant region
Relative IC50 (human C1q [1]): 1.12 ratio to chimeric M1
IC50 (read off the curve) (human C1q [2]): ~0.3 µg/mL

B3: humanized anti-C1q antibody VH1/Vκ1 (antibody, human IgG4)
heavy: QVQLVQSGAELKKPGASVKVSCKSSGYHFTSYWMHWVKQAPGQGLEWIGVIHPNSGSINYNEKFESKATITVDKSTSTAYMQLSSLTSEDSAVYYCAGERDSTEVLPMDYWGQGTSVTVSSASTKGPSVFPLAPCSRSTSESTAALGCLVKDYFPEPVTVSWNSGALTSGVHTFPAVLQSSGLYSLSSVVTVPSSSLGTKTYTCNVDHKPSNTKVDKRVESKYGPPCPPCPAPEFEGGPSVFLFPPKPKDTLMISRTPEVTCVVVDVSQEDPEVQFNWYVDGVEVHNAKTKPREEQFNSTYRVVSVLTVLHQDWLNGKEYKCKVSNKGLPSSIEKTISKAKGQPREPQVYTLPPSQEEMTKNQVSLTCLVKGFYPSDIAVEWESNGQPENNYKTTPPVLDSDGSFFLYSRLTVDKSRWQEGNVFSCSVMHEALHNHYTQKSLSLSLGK
light: DVQITQSPSYLAASLGERATINCRASKSINKYLAWYQQKPGKTNKLLIYSGSTLQSGIPARFSGSGSGTDFTLTISSLEPEDFAMYYCQQHNEYPLTFGQGTKLEIK
notes: Full-length human IgG4 (S241P L248E) / human kappa, expressed in NS0, Protein A purified; also called 2B12; not shown: human kappa light chain constant region
IC50 (read off the curve) (mouse C1q [3]): ~5 µg/mL
Relative IC50 (mouse C1q [4]): 1.62 ratio to chimeric M1
Relative IC50 (human C1q [1]): 0.9 ratio to chimeric M1
amount of antibody required to inhibit 50% of human CH50 hemolysis (human C1q [6]): ~60 ng
amount of antibody required to inhibit approximately 50% to approximately 80% of rat CH50 hemolysis (rat C1q): ~60 ng
IC50 (read off the curve) (human C1q [7]): ~0.3 µg/mL

B5: humanized anti-C1q antibody VH1/Vκ4 (antibody, human IgG4)
heavy: not shown
light: DIQLTQSPSSLSASLGERATINCRASKSINKYLAWYQQKPGKAPKLLIYSGSTLQSGIPARFSGSGSGTDFTLTISSLEPEDFAMYYCQQHNEYPLTFGQGTKLEIK
notes: as for B1
Relative IC50 (human C1q [1]): 0.8 ratio to chimeric M1
IC50 (read off the curve) (human C1q [2]): ~0.2 µg/mL

B6: humanized anti-C1q antibody VH1/Vκ3 (antibody, human IgG4)
heavy: not shown
light: DVQITQSPSSLSASLGERATINCRASKSINKYLAWYQQKPGKAPKLLIYSGSTLQSGIPARFSGSGSGTDFTLTISSLEPEDFAMYYCQQHNEYPLTFGQGTKLEIK
notes: as for B1
Relative IC50 (human C1q [1]): 0.91 ratio to chimeric M1
IC50 (read off the curve) (human C1q [7]): ~0.3 µg/mL

B8: humanized anti-C1q antibody VH1/Vκ2 (antibody, human IgG4)
heavy: not shown
light: DVQITQSPSSLSASLGERATINCRASKSINKYLAWYQQKPGKANKLLIYSGSTLQSGIPARFSGSGSGTDFTLTISSLEPEDFAMYYCQQHNEYPLTFGQGTKLEIK
notes: as for B1
Relative IC50 (human C1q [1]): 0.84 ratio to chimeric M1
IC50 (read off the curve) (human C1q [7]): ~0.3 µg/mL

B9: humanized anti-C1q antibody VH2/Vκ1 (antibody, human IgG4)
heavy: not shown
light: DVQITQSPSYLAASLGERATINCRASKSINKYLAWYQQKPGKTNKLLIYSGSTLQSGIPARFSGSGSGTDFTLTISSLEPEDFAMYYCQQHNEYPLTFGQGTKLEIK
notes: as for B1
Relative IC50 (human C1q [1]): 1.15 ratio to chimeric M1
IC50 (read off the curve) (human C1q [2]): ~0.3 µg/mL

B10: humanized anti-C1q antibody VH2/Vκ4 (antibody, human IgG4)
heavy: not shown
light: DIQLTQSPSSLSASLGERATINCRASKSINKYLAWYQQKPGKAPKLLIYSGSTLQSGIPARFSGSGSGTDFTLTISSLEPEDFAMYYCQQHNEYPLTFGQGTKLEIK
notes: as for B1
Relative IC50 (human C1q [1]): 0.72 ratio to chimeric M1
IC50 (read off the curve) (human C1q [2]): ~0.2 µg/mL

B15: humanized anti-C1q antibody VH2/Vκ3 (antibody, human IgG4)
heavy: not shown
light: DVQITQSPSSLSASLGERATINCRASKSINKYLAWYQQKPGKAPKLLIYSGSTLQSGIPARFSGSGSGTDFTLTISSLEPEDFAMYYCQQHNEYPLTFGQGTKLEIK
notes: as for B1
Relative IC50 (human C1q [1]): 0.75 ratio to chimeric M1
IC50 (read off the curve) (human C1q [2]): ~0.2 µg/mL

Further lines, with some results ahead:

IC50 (read off the curve) (mouse C1q [3]): ~6 µg/mL
Relative IC50 (mouse C1q [4]): 1.91 ratio to chimeric M1
IC50 (read off the curve) (human C1q [5]): ~0.3 µg/mL
Relative IC50 (human C1q [1]): 0.83 ratio to chimeric M1
B2: humanized anti-C1q antibody VH3/Vκ4 (antibody, human IgG4)
heavy: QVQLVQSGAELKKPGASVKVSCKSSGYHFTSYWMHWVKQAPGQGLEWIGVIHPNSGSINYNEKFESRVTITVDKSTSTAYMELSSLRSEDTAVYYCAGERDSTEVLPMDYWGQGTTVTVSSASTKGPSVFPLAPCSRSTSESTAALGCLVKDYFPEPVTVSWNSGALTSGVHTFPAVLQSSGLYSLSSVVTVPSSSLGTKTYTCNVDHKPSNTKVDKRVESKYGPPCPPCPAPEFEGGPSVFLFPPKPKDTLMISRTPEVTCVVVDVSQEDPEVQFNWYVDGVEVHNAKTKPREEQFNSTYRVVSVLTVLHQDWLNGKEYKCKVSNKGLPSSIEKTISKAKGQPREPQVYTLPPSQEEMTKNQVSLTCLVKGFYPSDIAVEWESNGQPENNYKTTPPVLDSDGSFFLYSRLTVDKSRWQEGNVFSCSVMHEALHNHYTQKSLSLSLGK
light: DIQLTQSPSSLSASLGERATINCRASKSINKYLAWYQQKPGKAPKLLIYSGSTLQSGIPARFSGSGSGTDFTLTISSLEPEDFAMYYCQQHNEYPLTFGQGTKLEIK
notes: Full-length human IgG4 (S241P L248E) / human kappa, expressed in NS0, Protein A purified; also called 3F1; not shown: human kappa light chain constant region
amount of antibody required to inhibit approximately 50% to approximately 80% of rat CH50 hemolysis (rat C1q): ~60 ng

IC50 (read off the curve) (human C1q [5]): ~0.2 µg/mL
Relative IC50 (human C1q [1]): 0.65 ratio to chimeric M1
B4: humanized anti-C1q antibody VH3/Vκ1 (antibody, human IgG4)
heavy: not shown
light: DVQITQSPSYLAASLGERATINCRASKSINKYLAWYQQKPGKTNKLLIYSGSTLQSGIPARFSGSGSGTDFTLTISSLEPEDFAMYYCQQHNEYPLTFGQGTKLEIK
notes: as for B1

IC50 (read off the curve) (human C1q [5]): ~0.3 µg/mL
Relative IC50 (human C1q [1]): 0.82 ratio to chimeric M1
B7: humanized anti-C1q antibody VH3/Vκ2 (antibody, human IgG4)
heavy: not shown
light: DVQITQSPSSLSASLGERATINCRASKSINKYLAWYQQKPGKANKLLIYSGSTLQSGIPARFSGSGSGTDFTLTISSLEPEDFAMYYCQQHNEYPLTFGQGTKLEIK
notes: as for B1

Relative IC50 (human C1q [1]): 0.84 ratio to chimeric M1
IC50 (read off the curve) (human C1q [8]): ~0.2 µg/mL
B11: humanized anti-C1q antibody VH4/Vκ2 (antibody, human IgG4)
heavy: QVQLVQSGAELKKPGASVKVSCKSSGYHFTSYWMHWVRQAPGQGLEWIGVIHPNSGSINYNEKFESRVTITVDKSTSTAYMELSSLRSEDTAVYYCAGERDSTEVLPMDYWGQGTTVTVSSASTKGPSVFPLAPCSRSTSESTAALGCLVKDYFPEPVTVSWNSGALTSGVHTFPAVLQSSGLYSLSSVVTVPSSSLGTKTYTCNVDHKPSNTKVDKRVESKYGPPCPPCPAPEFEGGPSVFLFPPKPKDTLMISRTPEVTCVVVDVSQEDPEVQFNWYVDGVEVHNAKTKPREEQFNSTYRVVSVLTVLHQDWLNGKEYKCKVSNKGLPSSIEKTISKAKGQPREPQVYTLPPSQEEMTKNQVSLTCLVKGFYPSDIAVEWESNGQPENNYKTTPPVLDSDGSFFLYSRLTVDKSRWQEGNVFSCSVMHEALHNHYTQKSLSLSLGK
light: DVQITQSPSSLSASLGERATINCRASKSINKYLAWYQQKPGKANKLLIYSGSTLQSGIPARFSGSGSGTDFTLTISSLEPEDFAMYYCQQHNEYPLTFGQGTKLEIK
notes: as for B1

Relative IC50 (human C1q [1]): 1.03 ratio to chimeric M1
IC50 (read off the curve) (human C1q [8]): ~0.3 µg/mL
B12: humanized anti-C1q antibody VH4/Vκ1 (antibody, human IgG4)
heavy: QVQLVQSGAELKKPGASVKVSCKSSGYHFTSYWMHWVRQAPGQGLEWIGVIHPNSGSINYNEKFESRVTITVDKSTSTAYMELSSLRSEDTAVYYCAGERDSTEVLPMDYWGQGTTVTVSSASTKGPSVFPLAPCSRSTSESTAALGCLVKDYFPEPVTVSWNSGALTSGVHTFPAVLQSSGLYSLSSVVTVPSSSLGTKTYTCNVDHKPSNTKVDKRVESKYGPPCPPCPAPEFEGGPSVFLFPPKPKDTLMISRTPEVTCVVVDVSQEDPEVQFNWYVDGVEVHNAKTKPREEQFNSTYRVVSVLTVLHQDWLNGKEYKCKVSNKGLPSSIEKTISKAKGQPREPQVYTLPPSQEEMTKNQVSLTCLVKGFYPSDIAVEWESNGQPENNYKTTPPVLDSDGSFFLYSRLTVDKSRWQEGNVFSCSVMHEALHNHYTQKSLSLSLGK
light: DVQITQSPSYLAASLGERATINCRASKSINKYLAWYQQKPGKTNKLLIYSGSTLQSGIPARFSGSGSGTDFTLTISSLEPEDFAMYYCQQHNEYPLTFGQGTKLEIK
notes: as for B1

Relative IC50 (human C1q [1]): 0.92 ratio to chimeric M1
IC50 (read off the curve) (human C1q [8]): ~0.2 µg/mL
B13: humanized anti-C1q antibody VH4/Vκ4 (antibody, human IgG4)
heavy: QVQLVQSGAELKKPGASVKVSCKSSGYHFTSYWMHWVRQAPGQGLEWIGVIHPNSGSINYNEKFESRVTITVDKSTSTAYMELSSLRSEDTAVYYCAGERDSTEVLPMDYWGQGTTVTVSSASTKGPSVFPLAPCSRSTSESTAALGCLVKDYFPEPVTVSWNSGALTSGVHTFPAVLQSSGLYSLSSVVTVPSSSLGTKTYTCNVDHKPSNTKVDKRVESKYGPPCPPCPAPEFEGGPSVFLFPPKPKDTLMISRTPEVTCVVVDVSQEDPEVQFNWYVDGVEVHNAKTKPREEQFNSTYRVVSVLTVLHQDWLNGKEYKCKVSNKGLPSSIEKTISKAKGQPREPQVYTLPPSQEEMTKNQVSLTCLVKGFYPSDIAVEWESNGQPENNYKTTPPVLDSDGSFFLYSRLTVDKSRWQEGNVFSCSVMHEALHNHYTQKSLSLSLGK
light: DIQLTQSPSSLSASLGERATINCRASKSINKYLAWYQQKPGKAPKLLIYSGSTLQSGIPARFSGSGSGTDFTLTISSLEPEDFAMYYCQQHNEYPLTFGQGTKLEIK
notes: as for B1

IC50 (read off the curve) (mouse C1q [3]): ~6 µg/mL
Relative IC50 (mouse C1q [4]): 1.84 ratio to chimeric M1
Relative IC50 (human C1q [1]): 0.77 ratio to chimeric M1
IC50 (read off the curve) (human C1q [8]): ~0.2 µg/mL
B14: humanized anti-C1q antibody VH4/Vκ3 (antibody, human IgG4)
heavy: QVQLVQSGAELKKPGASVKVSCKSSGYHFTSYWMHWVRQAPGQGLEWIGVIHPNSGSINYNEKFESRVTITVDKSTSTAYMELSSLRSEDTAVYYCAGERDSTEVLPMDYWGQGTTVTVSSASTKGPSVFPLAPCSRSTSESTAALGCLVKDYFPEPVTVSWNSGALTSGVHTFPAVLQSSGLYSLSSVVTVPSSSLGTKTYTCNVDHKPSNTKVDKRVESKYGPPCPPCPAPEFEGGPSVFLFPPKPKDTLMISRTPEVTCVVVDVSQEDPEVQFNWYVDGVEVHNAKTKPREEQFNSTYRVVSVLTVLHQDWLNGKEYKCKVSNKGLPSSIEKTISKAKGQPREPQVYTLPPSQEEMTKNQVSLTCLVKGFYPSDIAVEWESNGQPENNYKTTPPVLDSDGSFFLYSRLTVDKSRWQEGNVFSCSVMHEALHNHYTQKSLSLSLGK
light: DVQITQSPSSLSASLGERATINCRASKSINKYLAWYQQKPGKAPKLLIYSGSTLQSGIPARFSGSGSGTDFTLTISSLEPEDFAMYYCQQHNEYPLTFGQGTKLEIK
notes: Full-length human IgG4 (S241P L248E) / human kappa, expressed in NS0, Protein A purified; also called 1D3; not shown: human kappa light chain constant region
amount of antibody required to inhibit 50% of human CH50 hemolysis (human C1q [6]): ~60 ng
amount of antibody required to inhibit approximately 50% to approximately 80% of rat CH50 hemolysis (rat C1q): ~60 ng
